Experimental data published in article PMC8584306, “Characterization of Novel Pathogenic Variants Causing Pyridox(am)ine 5′-Phosphate Oxidase-Dependent Epilepsy” (International Journal of Molecular Sciences, 2021).
Numbering of substitutions follows the chain as printed. Names may count otherwise.

T1: pyridox(am)ine 5′-phosphate oxidase (PNPO) (Homo sapiens, UniProt Q9NVS9)
T1 construct: homodimer with FMN
T1 sequence (Q9NVS9 1-261): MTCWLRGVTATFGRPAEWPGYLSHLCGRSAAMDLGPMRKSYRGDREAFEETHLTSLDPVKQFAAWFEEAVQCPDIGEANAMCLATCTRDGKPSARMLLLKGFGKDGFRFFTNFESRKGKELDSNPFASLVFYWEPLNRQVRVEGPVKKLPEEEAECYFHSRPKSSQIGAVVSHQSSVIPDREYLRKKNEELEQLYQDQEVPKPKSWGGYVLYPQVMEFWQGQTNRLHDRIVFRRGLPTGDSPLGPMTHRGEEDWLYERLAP

B1: pyridox(am)ine 5′-phosphate oxidase, wild type (enzyme, human)
chain: T1 sequence (Q9NVS9 1-261)
notes: human pyridox(am)ine 5′-phosphate oxidase (PNPO), recombinant; The vector pET28-PNPO is named only for the variants; also called PNPO; WT; source: recombinant, purified by the protocol of [4]
B2: pyridox(am)ine 5′-phosphate oxidase P213S variant (enzyme, human)
chain: T1 sequence (Q9NVS9 1-261) with P213S
notes: human PNPO, patient variant P213S made by site-directed mutagenesis in pET28-PNPO; also called PNPO P213S; source: E. coli Rosetta (DE3), purified as described in [4]
B3: pyridox(am)ine 5′-phosphate oxidase R161C variant (enzyme, human)
chain: T1 sequence (Q9NVS9 1-261) with R161C
notes: human PNPO, patient variant R161C made by site-directed mutagenesis in pET28-PNPO; also called PNPO R161C; source: E. coli Rosetta (DE3), purified as described in [4]
B4: pyridox(am)ine 5′-phosphate oxidase D33V variant (enzyme, human)
chain: T1 sequence (Q9NVS9 1-261) with D33V
notes: human PNPO, patient variant D33V made by site-directed mutagenesis in pET28-PNPO; also called PNPO D33V; source: E. coli Rosetta (DE3), purified as described in [4]
B5: pyridox(am)ine 5′-phosphate oxidase E50K variant (enzyme, human)
chain: T1 sequence (Q9NVS9 1-261) with E50K
notes: human PNPO, natural variant E50K made by site-directed mutagenesis in pET28-PNPO; also called PNPO E50K; source: E. coli Rosetta (DE3), purified as described in [4]

Assays:
[1] = target: T1, pyridox(am)ine 5′-phosphate oxidase (PNPO); assay: differential scanning fluorimetry; format: binding; conditions: equimolar FMN added to 2 µM purified enzyme (already FMN-bound); range given for all PNPO forms
Description: differential scanning fluorimetry on pyridox(am)ine 5′-phosphate oxidase (PNPO) | equimolar amount of FMN stabilizes all the PNPO forms by increasing the Tm

[2] = target: the molecule itself; assay: SEC; gel filtration on a Superdex 200 10/300 GL column, as described previously [20]; elution profiles compared with the wild type

| Molecule | increase in Tm [1] | stoichiometry N [2] |
| --- | --- | --- |
| Cc1cc2nc3c(=O)[nH]c(=O)nc-3n(C[C@H](O)[C@H](O)[C@H](O)COP(=O)(O)O)c2cc1C [FMN] | 2–3 °C |  |
| B1 |  | 2 |
| B2 |  | 2 |
| B3 |  | 2 |
| B4 |  | 2 |
| B5 |  | 2 |
